Bridge positions count the residues as written; N and C are the ends. Square brackets hold non-standard residues; d marks the D form. Ends that are not written are not given here. * marks the point of attachment. Acetyl(2-(4-imidazolyl)) = O=C(Cc1c[nH]cn1)*; Aib = CC(C)(N)C(=O)O
T1: human GIP receptor (human, UniProt P48546 22-466)
T1 sequence (looked up): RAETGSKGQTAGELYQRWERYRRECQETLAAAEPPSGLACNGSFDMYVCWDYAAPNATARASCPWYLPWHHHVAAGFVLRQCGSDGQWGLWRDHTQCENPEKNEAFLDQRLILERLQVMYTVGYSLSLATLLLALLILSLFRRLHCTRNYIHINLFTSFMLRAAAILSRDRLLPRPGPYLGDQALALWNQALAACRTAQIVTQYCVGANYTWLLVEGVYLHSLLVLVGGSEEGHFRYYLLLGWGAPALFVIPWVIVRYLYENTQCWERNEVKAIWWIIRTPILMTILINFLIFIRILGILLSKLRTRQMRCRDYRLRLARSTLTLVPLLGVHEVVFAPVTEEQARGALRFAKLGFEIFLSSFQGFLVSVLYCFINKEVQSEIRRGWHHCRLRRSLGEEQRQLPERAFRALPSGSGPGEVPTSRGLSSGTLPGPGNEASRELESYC


Tests used:
Assay in all cases: cell-based or functional assay
[1] = molecular target: human GLP-1 receptor (human, UniProt P43220 24-463)
[2] = molecular target: human GCG receptor (human, UniProt P47871 26-477)
human GCG receptor, sequence (P47871 26-477): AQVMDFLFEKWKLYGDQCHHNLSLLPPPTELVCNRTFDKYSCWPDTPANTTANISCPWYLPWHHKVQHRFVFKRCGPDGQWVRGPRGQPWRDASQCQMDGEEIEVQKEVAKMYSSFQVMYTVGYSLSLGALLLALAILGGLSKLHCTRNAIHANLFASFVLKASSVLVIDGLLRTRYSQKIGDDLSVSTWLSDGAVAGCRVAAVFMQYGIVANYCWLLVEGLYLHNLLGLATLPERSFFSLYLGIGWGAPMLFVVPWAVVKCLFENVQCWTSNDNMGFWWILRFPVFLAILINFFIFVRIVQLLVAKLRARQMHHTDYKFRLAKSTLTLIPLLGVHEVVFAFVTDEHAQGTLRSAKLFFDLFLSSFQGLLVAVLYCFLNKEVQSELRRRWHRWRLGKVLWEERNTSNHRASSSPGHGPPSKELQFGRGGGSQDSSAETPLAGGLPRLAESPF

[3] = molecular target: T1, human GIP receptor

Binder | In vitro activity compared to native peptide (%) vs GLP-1 [1] | In vitro activity compared to native peptide (%) vs Glucagon [2] | In vitro activity compared to native peptide (%) vs GIP [3]
Y[Aib]QGTFTSDYSKYLDEKRAKEFVQWLLDHCPSSGQPPPS (bridge 16-20) [Triple agonist of SEQ ID NO: 96] | 34.4% | 195% | 5.2%
Y[Aib]QGTFTSDYSKALDEKAAKEFVQWLLDQHPSSGQPPPSC (bridge 16-20) [Triple agonist of SEQ ID NO: 100] | 42.2% | 12.7% | 118%
H[Aib]QGTFTSDVSKYLDGQAAQEFVAWLLAGC [Triple agonist of SEQ ID NO: 9] | 32.1% | 0.13% | < 0.1%
{Acetyl(2-(4-imidazolyl))}-GEGTFISDLSKYMDEQAVQLFVEWLMAGGPSSGAPPPSHG [Triple agonist of SEQ ID NO: 12] | 0.4% | < 0.1% | < 0.1%
{Acetyl(2-(4-imidazolyl))}-[Aib]EGTFTSDYSIAMDEIHQKDFVNWLLAQC (bridge 15-19) [Triple agonist of SEQ ID NO: 83] | 47.3% | 1.3% | 0.4%
{Acetyl(2-(4-imidazolyl))}-[Aib]QGTFTSDYSKYLDEKRQKEFVQWLLNTC (bridge 15-19) [Triple agonist of SEQ ID NO: 81] | 7.8% | 0.3% | < 0.1%
{Acetyl(2-(4-imidazolyl))}-[Aib]QGTFTSDYSIAMDEIHQKDFVNWLLNTC (bridge 15-19) [Triple agonist of SEQ ID NO: 87] | 0.9% | < 0.1% | < 0.1%
Y[Aib]QGTFTSDYSKALDEKAAKDFVNWLLDQHPSSGQPPPSC (bridge 16-20) [Triple agonist of SEQ ID NO: 102] | 23.3% | 29.5% | 58%
{Acetyl(2-(4-imidazolyl))}-GEGTFTSDLSKYLDSRRQQLFVQWLKAGGPSSGAPPPSHG [Triple agonist of SEQ ID NO: 11] | 1.4% | < 0.1% | < 0.1%
{Acetyl(2-(4-imidazolyl))}-[Aib]EGTFTSDYSIAMDEIHQKDFVNWLLAQKC (bridge 15-19) [Triple agonist of SEQ ID NO: 90] | 7.4% | < 0.1% | < 0.1%
{Acetyl(2-(4-imidazolyl))}-[Aib]QGTFTSDYSKYLDEKRQKEFVNWLLAQKC (bridge 15-19) [Triple agonist of SEQ ID NO: 93] | 5.7% | 0.3% | 0.7%
{Acetyl(2-(4-imidazolyl))}-[Aib]QGTFTSDYSKYLDEKRQKEFVQWLLDTKC (bridge 15-19) [Triple agonist of SEQ ID NO: 89] | 7.1% | 0.7% | < 0.1%
Y[Aib]QGTFTSDYSKYLDEKRAKEFVQWLLDCHPSSGQPPPS (bridge 16-20) [Triple agonist of SEQ ID NO: 97] | 10.5% | 62.8% | 2.6%
Y[Aib]QGTFTSDYSKALDEKAAKDFVNWLLDHHPSSGQPPPSC (bridge 16-20) [Triple agonist of SEQ ID NO: 99] | 20.9% | 14.9% | 57.7%
{Acetyl(2-(4-imidazolyl))}-[Aib]QGTFTSDYSKYLDEKRQKEFVQWLLNTKC (bridge 15-19) [Triple agonist of SEQ ID NO: 88] | 9.6% | 0.3% | < 0.1%
{Acetyl(2-(4-imidazolyl))}-[Aib]QGTFTSDYSIAMDEIHQKDFVNWLLAQC (bridge 15-19) [Triple agonist of SEQ ID NO: 85] | 4.3% | < 0.1% | 0.3%
{Acetyl(2-(4-imidazolyl))}-[Aib]QGTFTSDYSKYLDEKRQKEFVQWLLDTC (bridge 15-19) [Triple agonist of SEQ ID NO: 82] | 9.5% | 1.1% | < 0.1%
H[Aib]QGTFTSDVSKYLDGQAAQEFVAWLLAGGGPSSGAPPPSC [Triple agonist of SEQ ID NO: 10] | 46% | < 0.1% | < 0.1%
Y[Aib]QGTFTSDYSKALDEKAAKEFVNWLLDHHPSSGQPPPSC (bridge 16-20) [Triple agonist of SEQ ID NO: 98] | 28.1% | 8.2% | 47.1%
{Acetyl(2-(4-imidazolyl))}-[Aib]QGTFTSDYSKYLDEKRQKEFVNWLLAQC (bridge 15-19) [Triple agonist of SEQ ID NO: 86] | 28.4% | 0.4% | 0.2%
{Acetyl(2-(4-imidazolyl))}-[Aib]QGTFTSDYSIAMDEIHQKDFVNWLLNTKC (bridge 15-19) [Triple agonist of SEQ ID NO: 94] | 0.5% | < 0.1% | < 0.1%
Y[Aib]QGTFTSDYSKYLDEKRAKEFVQWLLCHHPSSGQPPPS (bridge 16-20) [Triple agonist of SEQ ID NO: 95] | 2.1% | 0.4% | < 0.1%
{Acetyl(2-(4-imidazolyl))}-[Aib]QGTFTSDYSIAMDEIHQKDFVNWLLAQKC (bridge 15-19) [Triple agonist of SEQ ID NO: 92] | 0.8% | < 0.1% | 0.4%
{Acetyl(2-(4-imidazolyl))}-[Aib]EGTFTSDYSIAMDEIHQKDFVDWLLAEKC (bridge 15-19) [Triple agonist of SEQ ID NO: 91] | 31.9% | 16.8% | 0.3%
{Acetyl(2-(4-imidazolyl))}-[Aib]EGTFTSDYSIAMDEIHQKDFVDWLLAEC (bridge 15-19) [Triple agonist of SEQ ID NO: 84] | 4.2% | < 0.1% | < 0.1%
